Measurements: publication PMC11385924

Assays:
[1] = test system: Km-AP23 (artificial (CPDiffusion design on KmAgo backbone)); assay: fluorescence polarization; conditions: FP: 5 nM FAM-DNA, 0-1500 nM protein, 15 mM Tris-HCl pH 7.4, 200 mM NaCl, 5 mM MnCl2, 37 C, 1 h, EMSA: 1 uM FAM-guide, 2 uM protein
[2] = test system: KmAgo (Km-WT) (Kurthia massiliensis); assay: fluorescence polarization; conditions: FP: 5 nM FAM-DNA, 0-1500 nM protein, 15 mM Tris-HCl pH 7.4, 200 mM NaCl, 5 mM MnCl2, 37 C, 1 h, EMSA: 1 uM FAM-guide, 2 uM protein

Work on gDNA (guide DNA) yielded a Kd [1] of 17 nM and a Kd [2] of 65.9 nM.

With tDNA (target DNA) the Kd [1] was 29.5 nM and the Kd [2] was 70 nM.
